Assay results: the supplement of paper PMC11246515
± gives the standard deviation of the averaged measurements.

Assay: total protein half-life in vivo (active degradation + dilution); higher = more stable protein
[1] = wild type E. coli NCM3722, growth: C-lim chemostat, doubling time 6 h
[2] = wild type E. coli NCM3722, growth: P-lim chemostat, doubling time 6 h
[3] = wild type E. coli NCM3722, growth: P-lim chemostat, doubling time 12 h
[4] = E. coli NCM3722 delta-clpP delta-lon delta-hslV, growth: N-lim chemostat, doubling time 6 h
[5] = E. coli NCM3722 delta-clpP, growth: N-lim chemostat, doubling time 6 h
[6] = E. coli NCM3722 delta-hslV, growth: N-lim chemostat, doubling time 6 h
[7] = E. coli NCM3722 delta-lon, growth: N-lim chemostat, doubling time 6 h
[8] = E. coli NCM3722 delta-smpB, growth: N-lim chemostat, doubling time 6 h
[9] = wild type E. coli NCM3722, growth: C-lim chemostat, doubling time 3 h
[10] = wild type E. coli NCM3722, growth: C-lim chemostat, doubling time 12 h
[11] = wild type E. coli NCM3722, growth: N-lim chemostat, doubling time 6 h
[12] = wild type E. coli NCM3722, growth: N-lim chemostat, doubling time 12 h

Sequence	total protein half-life in vivo [1] [h]	total protein half-life in vivo [2] [h]	total protein half-life in vivo [3] [h]	total protein half-life in vivo [4] [h]	total protein half-life in vivo [5] [h]	total protein half-life in vivo [6] [h]	total protein half-life in vivo [7] [h]	total protein half-life in vivo [8] [h]	total protein half-life in vivo [9] [h]	total protein half-life in vivo [10] [h]	total protein half-life in vivo [11] [h]	total protein half-life in vivo [12] [h]
MNQPLLSVNNLTHLYAPGKGFSDVSFDLWPGEVLGIVGESGSGKTTLLKSISARLTPQQGEIHYENRSLYAMSEADRRRLLRTEWGVVHQHPLDGLRRQVSAGGNIGERLMATGARHYGDIRATAQKWLEEVEIPANRIDDLPTTFSGGMQQRLQIARNLVTHPKLVFMDEPTGGLDVSVQARLLDLLRGLVVELNLAVVIVTHDLGVARLLADRLLVMKQGQVVESGLTDRVLDDPHHPYTQLLVSSVLQN	4.8	0.314	1.09 ± 0.26	–	–	–	–	–	–	–	–	–
MSRKDLANAIRALSMDAVQKANSGHPGAPMGMADIAEVLWNDFLKHNPTDPTWYDRDRFILSNGHASMLLYSLLHLTGYDLPLEELKNFRQLHSKTPGHPEIGYTPGVETTTGPLGQGLANAVGLAIAERTLAAQFNQPDHEIVDHFTYVFMGDGCLMEGISHEVCSLAGTLGLGKLIGFYDHNGISIDGETEGWFTDDTAKRFEAYHWHVIHEIDGHDPQAVKEAILEAQSVKDKPSLIICRTVIGFGSPNKAGKEEAHGAPLGEEEVALARQKLGWHHPPFEIPKEIYHAWDAREKGEKAQQSWNEKFAAYKKAHPQLAEEFTRRMSGGLPKDWEKTTQKYINELQANPAKIATRKASQNTLNAYGPMLPELLGGSADLAPSNLTIWKGSVSLKEDPAGNYIHYGVREFGMTAIANGIAHHGGFVPYTATFLMFVEYARNAARMAALMKARQIMVYTHDSIGLGEDGPTHQAVEQLASLRLTPNFSTWRPCDQVEAAVGWKLAVERHNGPTALILSRQNLAQVERTPDQVKEIARGGYVLKDSGGKPDIILIATGSEMEITLQAAEKLAGEGRNVRVVSLPSTDIFDAQDEEYRESVLPSNVAARVAVEAGIADYWYKYVGLKGAIVGMTGYGESAPADKLFPFFGFTAENIVAKAHKVLGVKGA	5.63 ± 0.22	5.83 ± 0.35	11.5 ± 0.12	4.98 ± 0.07	5.07 ± 0.55	4.95 ± 0.06	5.06 ± 0.13	4.75 ± 0.27	3.08 ± 0.16	10.8 ± 0.69	4.52 ± 0.16	8.32 ± 0.16
MQNTTHDNVILELTVRNHPGVMTHVCGLFARRAFNVEGILCLPIQDSDKSHIWLLVNDDQRLEQMISQIDKLEDVVKVQRNQSDPTMFNKIAVFFQ [P0ADF8]	3.63 ± 0.07	2.71 ± 0.66	5.91 ± 0.75	5.25 ± 2.1	1.6 ± 0.35	1.74 ± 0.22	2.35	1.62 ± 0.038	2.47 ± 0.37	4.56 ± 0.67	1.447 ± 0.0047	2.29 ± 0.29
MFRGATLVNLDSKGRLSVPTRYREQLLENAAGQMVCTIDIYHPCLLLYPLPEWEIIEQKLSRLSSMNPVERRVQRLLLGHASECQMDGAGRLLIAPVLRQHAGLTKEVMLVGQFNKFELWDETTWHQQVKEDIDAEQLATGDLSERLQDLSL	6.14 ± 0.43	6.8 ± 0.66	14.04 ± 0.07	7.01 ± 0.38	6.48 ± 0.5	6.33 ± 0.068	6.98 ± 0.57	5.69 ± 0.38	3.22 ± 0.08	12.19 ± 0.11	5.98 ± 0.57	12.9 ± 0.16
MAISSRNTLLAALAFIAFQAQAVNVTVAYQTSAEPAKVAQADNTFAKESGATVDWRKFDSGASIVRALASGDVQIGNLGSSPLAVAASQQVPIEVFLLASKLGNSEALVVKKTISKPEDLIGKRIAVPFISTTHYSLLAALKHWGIKPGQVEIVNLQPPAIIAAWQRGDIDGAYVWAPAVNALEKDGKVLTDSEQVGQWGAPTLDVWVVRKDFAEKHPEVVKAFAKSAIDAQQPYIANPDVWLKQPENISKLARLSGVPEGDVPGLVKGNTYLTPQQQTAELTGPVNKAIIDTAQFLKEQGKVPAVANDYSQYVTSRFVQ	5.75 ± 1.8	6.77 ± 1.1	11 ± 0.14	4.13 ± 0.43	4.56 ± 0.22	5.96 ± 0.29	5.56 ± 0.55	–	2.98 ± 0.11	13.2 ± 2.6	5.5 ± 0.39	12.4 ± 0.93
MLVSKKPMVLVILDGYGYREEQQDNAIFSAKTPVMDALWANRPHTLIDASGLEVGLPDRQMGNSEVGHVNLGAGRIVYQDLTRLDVEIKDRAFFANPVLTGAVDKAKNAGKAVHIMGLLSAGGVHSHEDHIMAMVELAAERGAEKIYLHAFLDGRDTPPRSAESSLKKFEEKFAALGKGRVASIIGRYYAMDRDNRWDRVEKAYDLLTLAQGEFQADTAVAGLQAAYARDENDEFVKATVIRAEGQPDAAMEDGDALIFMNFRADRAREITRAFVNADFDGFARKKVVNVDFVMLTEYAADIKTAVAYPPASLVNTFGEWMAKNDKTQLRISETEKYAHVTFFFNGGVEESFKGEDRILINSPKVATYDLQPEMSSAELTEKLVAAIKSGKYDTIICNYPNGDMVGHTGVMEAAVKAVEALDHCVEEVAKAVESVGGQLLITADHGNAEQMRDPATGQAHTAHTNLPVPLIYVGDKNVKAVEGGKLSDIAPTMLSLMGMEIPQEMTGKPLFIVE	5.58 ± 0.34	5.1 ± 0.24	10.35 ± 0.034	5.19 ± 0.06	5.05 ± 0.79	5.19 ± 0.44	4.97 ± 0.22	4.458 ± 0.033	2.85 ± 0.1	10 ± 1.6	4.76 ± 0.1	7.769 ± 0.048
MWDVIDLSRWQFALTALYHFLFVPLTLGLIFLLAIMETIYVVTGKTIYRDMTRFWGKLFGINFALGVATGLTMEFQFGTNWSFYSNYVGDIFGAPLAMEALMAFFLESTFVGLFFFGWQRLNKYQHLLVTWLVAFGSNLSALWILNANGWMQYPTGAHFDIDTLRMEMTSFSELVFNPVSQVKFVHTVMAGYVTGAMFIMAISAWYLLRGRERNVALRSFAIGSVFGTLAIIGTLQLGDSSAYEVAQVQPVKLAAMEGEWQTEPAPAPFHVVAWPEQDQERNAFALKIPALLGILATHSLDKPVPGLKNLMAETYPRLQRGRMAWLLMQEISQGNREPHVLQAFRGLEGDLGYGMLLSRYAPDMNHVTAAQYQAAMRGAIPQVAPVFWSFRIMVGCGSLLLLVMLIALVQTLRGKIDQHRWVLKMALWSLPLPWIAIEAGWFMTEFGRQPWAIQDILPTYSAHSALTTGQLAFSLIMIVGLYTLFLIAEVYLMQKYARLGPSAMQSEQPTQQQG	–	0.869	2.11	3.4	–	4.58 ± 0.54	1.46	1.93	–	–	5.27 ± 0.94	14.6
